Source: patent US20220363763A1 (ABL BIO, published 2022)

T1: recombinant human LAG-3-ECD-human IgG1 fusion protein (human, UniProt P18627 23-450, biotin-labeled in the MHC class II blocking assays)
T1 construct: extracellular domain; also called LAG-3-huFc; LAG-3-ECD-huFc; not shown: human IgG1 Fc
T1 sequence (looked up): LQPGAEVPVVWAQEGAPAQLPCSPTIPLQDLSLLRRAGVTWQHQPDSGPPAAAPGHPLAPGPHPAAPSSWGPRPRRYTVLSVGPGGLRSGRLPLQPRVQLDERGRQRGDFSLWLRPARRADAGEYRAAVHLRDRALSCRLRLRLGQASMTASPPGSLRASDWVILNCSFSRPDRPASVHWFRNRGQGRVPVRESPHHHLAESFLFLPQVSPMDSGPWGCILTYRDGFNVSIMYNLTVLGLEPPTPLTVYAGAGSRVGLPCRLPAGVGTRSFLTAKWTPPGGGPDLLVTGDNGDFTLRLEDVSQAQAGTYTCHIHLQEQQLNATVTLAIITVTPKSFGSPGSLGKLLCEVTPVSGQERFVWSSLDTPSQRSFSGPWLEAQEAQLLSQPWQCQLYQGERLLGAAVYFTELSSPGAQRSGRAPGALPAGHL

T2: recombinant his-tag human LAG3-ECD protein (human, UniProt P18627 23-450)
T2 construct: extracellular domain; not shown: his tag
T2 sequence (looked up): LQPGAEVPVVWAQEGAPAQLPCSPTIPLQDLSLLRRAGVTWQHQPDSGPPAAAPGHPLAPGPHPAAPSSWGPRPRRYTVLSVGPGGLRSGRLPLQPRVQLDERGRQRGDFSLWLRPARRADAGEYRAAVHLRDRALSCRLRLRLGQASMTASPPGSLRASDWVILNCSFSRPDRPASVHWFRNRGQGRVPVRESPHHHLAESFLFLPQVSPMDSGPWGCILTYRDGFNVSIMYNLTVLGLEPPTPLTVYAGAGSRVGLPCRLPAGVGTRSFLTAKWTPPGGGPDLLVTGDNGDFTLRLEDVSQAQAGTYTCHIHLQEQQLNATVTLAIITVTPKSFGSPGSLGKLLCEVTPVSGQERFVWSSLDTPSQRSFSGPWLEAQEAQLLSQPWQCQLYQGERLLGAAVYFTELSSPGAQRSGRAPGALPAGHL

T3: mouse LAG3 ECD-Fc protein (mouse, UniProt Q61790 24-442)
T3 construct: extracellular domain; not shown: Fc part
T3 sequence (looked up): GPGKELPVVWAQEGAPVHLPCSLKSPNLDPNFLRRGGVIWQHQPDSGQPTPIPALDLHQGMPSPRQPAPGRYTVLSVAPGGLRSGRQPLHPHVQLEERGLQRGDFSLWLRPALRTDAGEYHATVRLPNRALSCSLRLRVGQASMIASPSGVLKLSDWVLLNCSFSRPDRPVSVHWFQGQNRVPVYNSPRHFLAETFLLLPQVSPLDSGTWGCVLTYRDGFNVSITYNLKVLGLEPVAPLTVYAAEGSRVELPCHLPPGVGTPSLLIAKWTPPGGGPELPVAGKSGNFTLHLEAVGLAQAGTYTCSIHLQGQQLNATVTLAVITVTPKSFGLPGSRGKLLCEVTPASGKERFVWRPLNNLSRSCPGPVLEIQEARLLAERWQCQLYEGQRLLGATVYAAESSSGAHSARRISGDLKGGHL

T4: rat LAG3 ECD-Fc protein (rat, UniProt Q5BK54 24-442)
T4 construct: extracellular domain; not shown: Fc part
T4 sequence (looked up): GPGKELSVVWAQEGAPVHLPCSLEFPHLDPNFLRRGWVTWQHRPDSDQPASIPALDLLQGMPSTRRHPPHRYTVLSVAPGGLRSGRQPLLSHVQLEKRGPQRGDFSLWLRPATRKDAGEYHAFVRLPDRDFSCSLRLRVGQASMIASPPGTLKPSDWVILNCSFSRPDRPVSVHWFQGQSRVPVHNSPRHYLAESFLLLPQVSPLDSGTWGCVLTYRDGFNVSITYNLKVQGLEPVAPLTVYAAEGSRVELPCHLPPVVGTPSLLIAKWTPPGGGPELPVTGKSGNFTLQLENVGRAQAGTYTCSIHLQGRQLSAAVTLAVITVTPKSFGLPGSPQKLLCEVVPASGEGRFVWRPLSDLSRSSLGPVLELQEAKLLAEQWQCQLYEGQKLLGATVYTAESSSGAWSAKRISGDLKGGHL


Legend:
[1] = target: T1, recombinant human LAG-3-ECD-human IgG1 …; assay: ELISA on coated human LAG3 ECD-Fc; EC50 table has no unit, x axis Ab(nM)
Procedure: (§1) To evaluate the capability of the anti-LAG-3 antibodies to bind to human, rat, and mouse LAG3 the antibodies identified in Example 2.1 were evaluated for their binding property through ELISA. The human, rat and mouse LAG3 ECD-Fc protein were coated to ELISA plate at 1 μg/ml with 100 μl/well. Antibodies from Example 1 were serially diluted with ELISA diluent buffer. […] The resulting plates were washed and then labeled with anti-human IgG(Fab)-HRP antibody. The S31 can only bind to human LAG3. The S27 and T99 can bind to human LAG3 and rat/mouse LAG3 with lower potency. The S119 antibody can bind to human, rat and mouse LAG3 at high potency (FIGS. 22A-22D).

[2] = target: T2, recombinant his-tag human LAG3-ECD …; assay: SPR Biacore T200, antibody captured by anti-human Fc, LAG3-ECD-his injected
Outline: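 Antibodies captured on chip-coated anti-human Fc; his-tag human LAG3-ECD injected at serial concentrations of 0-4 nM, flow 30 μl/min. Dissociation phase 900 s or 550 s.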

[3] = target: T3, mouse LAG3 ECD-Fc protein; assay: ELISA on coated mouse LAG3 ECD-Fc; EC50 table has no unit, x axis Ab(nM); fit value of a flat curve
Procedure: as §1

rat LAG3 ECD-Fc protein [4] = target: T4, rat LAG3 ECD-Fc protein; assay: ELISA on coated rat LAG3 ECD-Fc; EC50 table has no unit, x axis Ab(nM); fit value of a flat curve
Procedure: as §1

[5] = target: T1, recombinant human LAG-3-ECD-human IgG1 …; assay: flow cytometry; blocking of biotin-LAG-3-ECD-huFc binding to MHC class II on Raji cells; the curve ends at about 20 nM without a lower plateau
Procedure: (§2) To evaluate the ability of anti-LAG-3 antibodies to block the binding of sLAG-3 to MHC class II receptor, an in vitro binding assay was designed using biotin-labeled LAG-3-ECD-huFc fusion proteins and Raji cells expressing MHC class II receptor. Antibodies from Example 1 were serially diluted from 20 μg/mL with FACS buffer and pre-incubated with 6 μg/mL of biotin-LAG-3-ECD-huFcc for 30 min at room temperature. The antibody mixture was then added to FcR blocked Raji cells and incubated for 30 min on ice. Cells were then washed with FACS buffer and subsequently stained with streptavidin PE for 30 min on ice and subsequently washed once with FACS buffer. Labeled cells were evaluated for fluorescence intensity by flow cytometry in a BD FACSCalibur™.

[6] = target: T1, recombinant human LAG-3-ECD-human IgG1 …; assay: flow cytometry; blocking of biotin-LAG-3-ECD-huFc binding to MHC class II on Raji cells
Procedure: as §2, with “Antibodies from Example 1 were serially diluted from 20 μg/mL with FACS buffer and pre-incubated with 6 μg/mL of biotin-LAG-3-ECD-huFcc for 30 min at room temperature.” left out

[7] = target: T1, recombinant human LAG-3-ECD-human IgG1 …; assay: ELISA on coated D1-D4 huFc; EC50 table has no unit, x axis Ab(nM)
Procedure: Briefly, D1-D4 huFc or ΔD1-D2 huFc was coated at 0.5 μg/ml overnight and then blocked by 5% BSA in PBS. The serially diluted antibodies (starting from 1 μg/ml and 1:3 serial dilution for 10 doses) were incubated with the coated antigen for 1 hr at room temperature. The resulting plates were washed with PBS/T and incubated with goat anti-mouse IgG-HRP for 1 h at room temperature. The plates were developed with TMB substrate and analyzed by spectrophotometer at OD 450-630 nm.

[8] = target: T1, recombinant human LAG-3-ECD-human IgG1 …; assay: flow cytometry; blocking of biotin-LAG-3-ECD-huFc binding to MHC class II on Raji cells; remark: listed apart in the source
Procedure: as §2

rat LAG3 ECD-Fc protein [9] = target: T4, rat LAG3 ECD-Fc protein; assay: ELISA on coated rat LAG3 ECD-Fc; EC50 table has no unit, x axis Ab(nM)
Procedure: as §1

[10] = target: T3, mouse LAG3 ECD-Fc protein; assay: ELISA on coated mouse LAG3 ECD-Fc; EC50 table has no unit, x axis Ab(nM)
Procedure: as §1

Binder | EC50 [1] | Kd [2] | koff [2] | kon [2] | EC50 [3] | EC50 (rat LAG3 ECD-Fc protein [4]) | IC50 [5] | IC50 [6] | EC50 [7] | IC50 [8] | EC50 (rat LAG3 ECD-Fc protein [9]) | EC50 [10]
NLAG3-HDB169-S31 (antibody, human IgG1, V domains shown, Short label tied by its unique suffix) VH: QVQLVQSGAEVKKPGSSVKVSCKASGGTFSSYAISWVRQAPGQGLEWMGGIIPIFGTANYAQKFQGRVTITADESTSTAYMELSSLRSEDTAVYYCARDAGPVGYYGMDVWGQGTTVTVSS VL: AIRMTQSPSTLSASVGDRVTITCRASQGIAGWLAWYQQKPGKAPKLLIYAASSLQSGVPSRFSGSASGTDFTLTISNLQPEDFATYYCQQAKSFPLTFGGGTKVEIKR | 0.279 nM | 0.03 nM | 6.25e-05 s⁻¹ | 2.08e+06 M⁻¹ s⁻¹ | 119 nM | ~271000 nM | 82.6 nM | – | – | – | – | –
147H mouse monoclonal antibody (antibody, V domains shown, Mouse hybridoma antibody) VH: QVQLQQSGSELVRPGTSVKISCKASGYTFTNYWLGWIKQRPGHGLEWIGDIYPGGDYINYNEKFKGKATLSADTSSSTAYMQLSSLTSEDSAVYFCARPNLPGDYWGQGTSVTVSS VL: DIVMTQAAFSNPVTLGTSASISCRSSKSLLHSNGITYLYWYLQKPGQSPQLLIYQVSNLASGVPGRFSGSGSGTDFTLRISRVEAEDVGVYYCAQNLELPWTFGGGTKLEIK | – | – | – | – | – | – | – | 21.4 nM | 0.0979 nM | – | – | –
NLAG3-HDB169-S119 (antibody, human IgG1, V domains shown, Short label tied by its unique suffix) VH: QVQLVQSGAEVKKPGSSVKVSCKASGGTFSSYAISWVRQAPGQGLEWMGGIIPIFGTANYAQKFQGRVTITADESTSTAYMELSSLRSEDTAVYYCAASTLRVPNPPYWGQGTLVTVSS VL: EIVLTQSPGTLSLSPGERATLSCRASQSVSSYLAWYQQKPGQAPRLLIYGISSRATGIPDRFSGSGSGTDFTLTISSLQPEDFATYYCQQANNFPLTFGGGTKLEIKR | 0.0321 nM | 0.00687 nM | 0.000149 s⁻¹ | 2.17e+07 M⁻¹ s⁻¹ | – | – | – | – | – | 9.29 nM | 0.0387 nM | 0.0724 nM
